Source: IntAct's records for PubMed 29039417

B1: BBSome complex member BBS4 (Homo sapiens), Q96RK4 (parent)
chain: MAEERVATRTQFPVSTESQKPRQKKAPEFPILEKQNWLIHLHYIRKDYEACKAVIKEQLQETQGLCEYAIYVQALIFRLEGNIQESLELFQTCAVLSPQSADNLKQVARSLFLLGKHKAAIEVYNEAAKLNQKDWEISHNLGVCYIYLKQFNKAQDQLHNALNLNRHDLTYIMLGKIHLLEGDLDKAIEVYKKAVEFSPENTELLTTLGLLYLQLGIYQKAFEHLGNALTYDPTNYKAILAAGSMMQTHGDFDVALTKYRVVACAVPESPPLWNNIGMCFFGKKKYVAAISCLKRANYLAPFDWKILYNLGLVHLTMQQYASAFHFLSAAINFQPKMGELYMLLAVALTNLEDIENAKRAYAEAVHLDKCNPLVNLNYAVLLYNQGEKKNALAQYQEMEKKVSLLKDNSSLEFDSEMVEMAQKLGAALQVGEALVWTKPVKDPKSKHQTTSTSKPASFQQPLGSNQALGQAMSSAAAYRTLPSGAGGTSQFTKPPSLPLEPEPAVESSPTETSEQIREK
partner: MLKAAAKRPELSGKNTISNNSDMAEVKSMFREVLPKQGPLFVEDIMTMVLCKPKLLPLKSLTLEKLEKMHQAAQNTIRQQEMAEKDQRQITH

Variants of: B1
Details: with bbip1_human BBIP1, A8MTZ0

Variant	effect of a mutation on the interaction
MAEERVATRTQFPVSTESQKPRQKKAPEFPILEKQNWLIHLHYIRKDYEACKAVIKEQLQETQGLCEYAIYVQALIFRLEGNIQESLELFQTCAVLSPQSADNLKQVARSLFLLGKHKAAIEVYNEAAKLNQKDWEISHNLGVCYIYLKQFNKAQDQLHNALNLNRHDLTYIMLGKIHLLEGDLDKAIEVYKKAVEFSPENTELLTTLGLLYLQLGIYQKAFEHLGNALTYDPTNYKAILAAGSMMQTHGDFDVALTKYRVVACAVPESPPLWNNIGMCFFGKKKYVAAISKLKRANYLAPFDWKILYNLGLVHLTMQQYASAFHFLSAAINFQPKMGELYMLLAVALTNLEDIENAKRAYAEAVHLDKCNPLVNLNYAVLLYNQGEKKNALAQYQEMEKKVSLLKDNSSLEFDSEMVEMAQKLGAALQVGEALVWTKPVKDPKSKHQTTSTSKPASFQQPLGSNQALGQAMSSAAAYRTLPSGAGGTSQFTKPPSLPLEPEPAVESSPTETSEQIREK [C292K]	with no effect
MAEERVATRTQFPVSTESQKPRQKKAPEFPILEKQNWLIHLHYIRKDYEACKAVIKEQLQETQGLCEYAIYVQALIFRLEGNIQESLELFQTCAVLSPQSADNLKQVARSLFLLGKHKAAIEVYNEAAKLNQKDWEISHNLGVCYIYLKQFNKAQDQLHNALNLNRHDLTYIMLGKIHLLEGDLDKAIEVYKKAVEFSPENTELLTTLGLLYLQLGIYQKAFEHLGNALTYDPTNYKAILAAGSMMQTHGDFDVALTKYRVVACAVPESPPLWNNIGMCFFGKKKYVAAISCLKRANYLAPFDWKILYNLGLVHLTMQQYASAFHFLSAAINFQPKMGELYMLLAVALTNLEDIENAKRAYAEAVHLDKENPLVNLNYAVLLYNQGEKKNALAQYQEMEKKVSLLKDNSSLEFDSEMVEMAQKLGAALQVGEALVWTKPVKDPKSKHQTTSTSKPASFQQPLGSNQALGQAMSSAAAYRTLPSGAGGTSQFTKPPSLPLEPEPAVESSPTETSEQIREK [C370E]	with no effect
MAEERVATRTQFPVSTESQKPRQKKAPEFPILEKQNWLIHLHYIRKDYEACKAVIKEQLQETQGLCEYAIYVQALIFRLEGNIQESLELFQTCAVLSPQSADNLKQVARSLFLLGKHKAAIEVYNEAAKLNQKDWEISHNLGVCYIYLKQFNKAQDQLHNALNLNRHDLTYIMLGKIHLLEGDLDKAIEVYKKAVEFSPENTELLTTLGLLYLQLGIYQKAFEHLGNALTYDPTNYKAILAAGSMMQTHGDFDVALTKYRVVACAVPESPPLWNNIGMCFFGKKKYVAAISCLKRANYLAPFDWKILYNLGLVHLTMQQYASAFHFLSAAINFQPKMGELYMLLAVALTNLEDIENAKRAYAEAVHLDKCNPLVNLNYAVLLYNQGEKKNALAQYQEMEKKVSLLKDNSSLEFDSEMVEMAQKLGAALQVGEALVWTKPVKDEKSKHQTTSTSKPASFQQPLGSNQALGQAMSSAAAYRTLPSGAGGTSQFTKPPSLPLEPEPAVESSPTETSEQIREK [P443E]	with no effect
MAEERVATRTQFPVSTESQKPRQKKAPEFPILEKQNWLIHLHYIRKDYEACKAVIKEQLQETQGLCEYAIYVQALIFRLEGNIQESLELFQTCAVLSPQSADNLKQVARSLFLLGKHKAAIEVYNEAAKLNQKDWEISHNLGVCYIYLKQFNKAQDQLHNALNLNRHDLTYIMLGKIHLLEGDLDKAIEVYKKAVEFSPENTELLTTLGLLYLQLGIYQKAFEHLGNALTYDPTNYKAILAAGSMMQTHGDFDVALTKYRVVACAVPESPPLWNNIGMCFFGKKKYVAAISCLKRANYLAPFDWKILYNLGLVHLTMQQYASAFHFLSAAINFQPKMGELYMLLAVALTNLEDIENAKRAYAEAVHLDKCNPLVNLIYAVLLYNQGEKKNALAQYQEMEKKVSLLKDNSSLEFDSEMVEMAQKLGAALQVGEALVWTKPVKDPKSKHQTTSTSKPASFQQPLGSNQALGQAMSSAAAYRTLPSGAGGTSQFTKPPSLPLEPEPAVESSPTETSEQIREK [N377I]	disrupting interaction strength
MAEERVATRTQFPVSTESQKPRQKKAPEFPILEKQNWLIHLHYIRKDYEACKAVIKEQLQETQGLCEYAIYVQALIFRLEGNIQESLELFQTCAVLSPQSADNLKQVARSLFLLGKHKAAIEVYNEAAKLNQKDWEISHNLGVCYIYLKQFNKAQDQLHNALNLNRHDLTYIMLGKIHLLEGDLDKAIEVYKKAVEFSPENTELLTTLGLLYLQLGIYQKAFEHLGNALTYDPTNYKAILAAGSMMQTHGDFDVALTKYRVVACAVPESPPLWNNIGMCFFGKKKYVAAISCLKRANYLAPFDWKILYNLGLVHLTMQQYASAFHFLSAAINFQPKMGELYMLLAVALTNLEDIENAKRAYAEAVHLDKCNPLVNLNYAVLLYNQGEKKNALAQYQEEEKKVSLLKDNSSLEFDSEMVEMAQKLGAALQVGEALVWTKPVKDPKSKHQTTSTSKPASFQQPLGSNQALGQAMSSAAAYRTLPSGAGGTSQFTKPPSLPLEPEPAVESSPTETSEQIREK [M398E]	with no effect
MAEERVATRTQFPVSTESQKPRQKKAPEFPILEKQNWLIHLHYIRKDYEACKAVIKEQLQETQGLCEYAIYVQALIFRLEGNIQESLELFQTCAVLSPQSADNLKQVARSLFLLGKHKAAIEVYNEAAKLNQKDWEISHNLGVCYIYLKQFNKAQDQLHNALNLNRHDLTYIMLGKIHLLEGDLDKAIEVYKKAVEFSPENTELLTTLGLLYLQLGIYQKAFEHLGNALTYDPTNYKAILAAGSMMQTHGDFDVALTKYRVVACAVPESPPLWNNIGMCFFGKKKYVAAISCLKRANYLAPFDWKILYNLGLVHLTMQQYASAFHFLSAAINFQPKMGELYMLLAVALTNLEDIENAKRAYAEAVHLDKCNPLVNLNYAVLLYNQGEKKNALAQYQEAEKKVSLLKDNSSLEFDSEMVEMAQKLGAALQVGEALVWTKPVKDPKSKHQTTSTSKPASFQQPLGSNQALGQAMSSAAAYRTLPSGAGGTSQFTKPPSLPLEPEPAVESSPTETSEQIREK [M398A]	with no effect
MAEERVATRTQFPVSTESQKPRQKKAPEFPILEKQNWLIHLHYIRKDYEACKAVIKEQLQETQGLCEYAIYVQALIFRLEGNIQESLELFQTCAVLSPQSADNLKQVARSLFLLGKHKAAIEVYNEAAKLNQKDWEISHNLGVCYIYLKQFNKAQDQLHNALNLNRHDLTYIMLGKIHLLEGDLDKAIEVYKKAVEFSPENTELLTTLGLLYLQLGIYQKAFEHLGNALTYDPTNYKAILAAGSMMQTHGDFDVALTKYRVVACAVPESPPLWNNIGMCFFGKKKYVAAISCLKRANYLAPFDWKILYNLGLVHLTMQQYASAFHFLSAAINFQPKMGELYMLLAVALTNLEDIENAKRAYAEAVHLDKCNPLVNLNYAVLLYNQGEKKNALAQYQEMEKKVSLLKDNSSLEFDSEMVEMAQKLGAALQVGEALVWTKPVKDPKSKHQTTSTSKPASFQQPLGSNQALGQAMSSAAAYRTLPSKAGGTSQFTKPPSLPLEPEPAVESSPTETSEQIREK [G484K]	with no effect
MAEERVATRTQFPVSTESQKPRQKKAPEFPILEKQNWLIHLHYIRKDYEACKAVIKEQLQETQGLCEYAIYVQALIFRLEGNIQESLELFQTCAVLSPQSADNLKQVARSLFLLGKHKAAIEVYNEAAKLNQKDWEISHNLGVCYIYLKQFNKAQDQLHNALNLNRHDLTYIMLGKIHLLEGDLDKAIEVYKKAVEFSPENTELLTTLGLLYLQLGIYQKAFEHLGNALTYDPTNYKAILAAGSMMQTHGDFDVALTKYRVVACAVPESPPLWNNIGMCFFGKKKYVAAISCLKRANYLAPFDWKELYNLGLVHLTMQQYASAFHFLSAAINFQPKMGELYMLLAVALTNLEDIENAKRAYAEAVHLDKCNPLVNLNYAVLLYNQGEKKNALAQYQEMEKKVSLLKDNSSLEFDSEMVEMAQKLGAALQVGEALVWTKPVKDPKSKHQTTSTSKPASFQQPLGSNQALGQAMSSAAAYRTLPSGAGGTSQFTKPPSLPLEPEPAVESSPTETSEQIREK [I306E]	with no effect
MAEERVATRTQFPVSTESQKPRQKKAPEFPILEKQNWLIHLHYIRKDYEACKAVIKEQLQETQGLCEYAIYVQALIFRLEGNIQESLELFQTCAVLSPQSADNLKQVARSLFLLGKHKAAIEVYNEAAKLNQKDWEISHNLGVCYIYLKQFNKAQDQLHNALNLNRHDLTYIMLGKIHLLEGDLDKAIEVYKKAVEFSPENTELLTTLGLLYLQLGIYQKAFEHLGNALTYDPTNYKAILAAGSMMQTHGDFDVALTKYRVVACAVPESPPLWNNIGMCFFGKKKYVAAISCLKRANYLAPFDWKILYNLGLVHLTMQQYASAFHFLSAAINFQPKMGELYMLLAVALTNLEDIENAKRAYAEAVHLDKCNPLVNLNYAVLLYNQGEKKNALAQYQEMEKKVSLLKDNSSLEFDSEMVEMAQKLGAALEVGEALVWTKPVKDPKSKHQTTSTSKPASFQQPLGSNQALGQAMSSAAAYRTLPSGAGGTSQFTKPPSLPLEPEPAVESSPTETSEQIREK [Q429E]	with no effect
MAEERVATRTQFPVSTESQKPRQKKAPEFPILEKQNWLIHLHYIRKDYEACKAVIKEQLQETQGLCEYAIYVQALIFRLEGNIQESLELFQTCAVLSPQSADNLKQVARSLFLLGKHKAAIEVYNEAAKLNQKDWEISHNLGVCYIYLKQFNKAQDQLHNALNLNRHDLTYIMLGKIHLLEGDLDKAIEVYKKAVEFSPENTELLTTLGLLYLQLGIYQKAFEHLGNALTYDPTNYKAILAAGSMMQTHGDFDVALTKYRVVACAVPESPPLWNNIGMCFFGKKKYVAAISCLKRANYLAPFDWKILYNLGLVHLTMQQYASAFHFLSAAINFQPKMGELYMLLAVALTNLEDIENAKRAYAEAVHLDKCNPLVNLNYAVLLYNQGEKKNALAQYQEMEKKVSLLKDNSSLEFDSEMVEMAQKLGAALQVGEALVWTKPVKDPKSKHQTTSTSKPASFQQPLGSNQALGQAMESAAAYRTLPSGAGGTSQFTKPPSLPLEPEPAVESSPTETSEQIREK [S473E]	with no effect
MAEERVATRTQFPVSTESQKPRQKKAPEFPILEKQNWLIHLHYIRKDYEACKAVIKEQLQETQGLCEYAIYVQALIFRLEGNIQESLELFQTCAVLSPQSADNLKQVARSLFLLGKHKAAIEVYNEAAKLNQKDWEISHNLGVCYIYLKQFNKAQDQLHNALNLNRHDLTYIMLGKIHLLEGDLDKAIEVYKKAVEFSPENTELLTTLGLLYLQLGIYQKAFEHLGNALTYDPTNYKAILAAGSMMQTHGDFDVALTKYRVVACAVPESPPLWNNIGMCFFGKKKYVAAISCLKRANYLAPFDWKILYNLGLVHLTMQQYASAFHFLSAAINFQPKMGELYMLLAVALTNLEDIENAKRAYAEAVHLDKCNPLVNLNYAVLLYNQGEKKNALAQYQEMEKKVSLLKDNSSLEFDSEMVEMAQKLGAELQVGEALVWTKPVKDPKSKHQTTSTSKPASFQQPLGSNQALGQAMSSAAAYRTLPSGAGGTSQFTKPPSLPLEPEPAVESSPTETSEQIREK [A427E]	with no effect
MAEERVATRTQFPVSTESQKPRQKKAPEFPILEKQNWLIHLHYIRKDYEACKAVIKEQLQETQGLCEYAIYVQALIFRLEGNIQESLELFQTCAVLSPQSADNLKQVARSLFLLGKHKAAIEVYNEAAKLNQKDWEISHNLGVCYIYLKQFNKAQDQLHNALNLNRHDLTYIMLGKIHLLEGDLDKAIEVYKKAVEFSPENTELLTTLGLLYLQLGIYQKAFEHLGNALTYDPTNYKAILAAGSMMQTHGDFDVALTKYRVVACAVPESPPLWNNIGMCFFGKKKYVAAISCLKRANYLAPFDWKILYNLGLVHLTMQQYASAFHFLSAAINFQPKMGELYMLLAVALTNLEDIENAKRAYAEAVHLDKCNPLVNLNYAVLLYNQGEKKNALAQYQEMEKKVSLLKDNSSLEFDSEMVEMAQKLGAALQVGEALVWTKPVKDPKSKHQTTSTSKPASFQQPLGSNQALGQAMSSAAAYRTLPSGAGGTSQFTKPPSLPLEPEPAVESSETETSEQIREK [P509E]	with no effect
